Numbering of substitutions follows the chain as printed. Numbers in names are those of the source.

The values below come from patent publication US20240270846A1 (published 2024).

To fix the notation:
B1: GLS3000 G89P one-amino acid altered one-arm antibody (CE115HA000-pE22Hh / Kn010G3 / GLS3000 G89P-kappa) (antibody, human IgG1, kappa, L234A L235A, N297A, name in Kabat numbering)
heavy: QVQLVESGGGVVQPGRSLRLSCAASGFTFSNAWMHWVRQAPGKGLEWVAQIKAKSNNYATYYAESVKGRFTISRDDSKNSLYLQMNSLKTEDTAVYYCRYVHYGAYYGVDAWGQGTTVTVSSASTKGPSVFPLAPSSKSTSGGTAALGCLVKDYFPEPVTVSWNSGALTSGVHTFPAVLQSSGLYSLSSVVTVPSSSLGTQTYICNVNHKPSNTKVDKKVEPKSCDKTHTCPPCPAPEAAGGPSVFLFPPKPKDTLMISRTPEVTCVVVDVSHEDPEVKFNWYVDGVEVHNAKTKPREEQYASTYRVVSVLTVLHQDWLNGKEYKCKVSNKALPAPIEKTISKAKGQPREPQVYTLPPSRCELTKNQVSLSCAVKGFYPSDIAVEWESNGQPENNYKTTPPVLDSDGSFFLVSKLTVDKSRWQQGNVFSCSVMHEALHNHYTQKSLSLSPDYKDDDDK
chain: EPKSSDKTHTCPPCPAPELLGGPSVFLFPPKPKDTLMISRTPEVTCVVVDVSHEDPEVKFNWYVDGVEVHNAKTKPREEQYNSTYRVVSVLTVLHQDWLNGKEYKCKVSNKALPAPIEKTISKAKGQPREPQVCTLPPSRDELTKNQVSLWCLVKGFYPSDIAVEWESNGQPENNYKTTPPVLDSDGSFFLYSKLTVDKSRWQQGNVFSCSVMHEALHNRYTQKSLSLSP
light: DIVMTQSPLSLPVTPGEPASISCRSSQSLVHSNRNTYLHWYQQKPGQAPRLLIYKVSNRFSGVPDRFSGSGSGTDFTLKISRVEAEDVGVYYCPQGTQVPYTFGQGTKLEIKRTVAAPSVFIFPPSDEQLKSGTASVVCLLNNFYPREAKVQWKVDNALQSGNSQESVTEQDSKDSTYSLSSTLTLSKADYEKHKVYACEVTHQGLSSPVTKSFNRGEC
notes: One-arm antibody; substitution position in Kabat numbering; also called L chain altered form, Kabat 89 G to P
B2: GLS3000 K74T one-amino acid altered one-arm antibody (CE115HA000-pE22Hh / Kn010G3 / GLS3000 K74T-kappa) (antibody, human IgG1, kappa, L234A L235A, N297A, name in Kabat numbering)
heavy: B1 heavy
chain: B1 chain
light: B1 light with K79T, P94G
notes: One-arm antibody; substitution position in Kabat numbering; also called L chain altered form, Kabat 74 K to T
B3: GLS3000 Q90P one-amino acid altered one-arm antibody (CE115HA000-pE22Hh / Kn010G3 / GLS3000 Q90P-kappa) (antibody, human IgG1, kappa, L234A L235A, N297A, name in Kabat numbering)
heavy: B1 heavy
chain: B1 chain
light: B1 light with P94G, Q95P
notes: One-arm antibody; substitution position in Kabat numbering; also called L chain altered form, Kabat 90 Q to P
B4: GLS3000 G89W one-amino acid altered one-arm antibody (CE115HA000-pE22Hh / Kn010G3 / GLS3000 G89W-kappa) (antibody, human IgG1, kappa, L234A L235A, N297A, name in Kabat numbering)
heavy: B1 heavy
chain: B1 chain
light: B1 light with P94W
notes: One-arm antibody; substitution position in Kabat numbering; also called L chain altered form, Kabat 89 G to W
B5: GLS3000 G89V one-amino acid altered one-arm antibody (CE115HA000-pE22Hh / Kn010G3 / GLS3000 G89V-kappa) (antibody, human IgG1, kappa, L234A L235A, N297A, name in Kabat numbering)
heavy: B1 heavy
chain: B1 chain
light: B1 light with P94V
notes: One-arm antibody; substitution position in Kabat numbering; also called L chain altered form, Kabat 89 G to V
B6: GLS3000 Q90S one-amino acid altered one-arm antibody (CE115HA000-pE22Hh / Kn010G3 / GLS3000 Q90S-kappa) (antibody, human IgG1, kappa, L234A L235A, N297A, name in Kabat numbering)
heavy: B1 heavy
chain: B1 chain
light: B1 light with P94G, Q95S
notes: One-arm antibody; substitution position in Kabat numbering; also called L chain altered form, Kabat 90 Q to S
B7: GLS3000 G89T one-amino acid altered one-arm antibody (CE115HA000-pE22Hh / Kn010G3 / GLS3000 G89T-kappa) (antibody, human IgG1, kappa, L234A L235A, N297A, name in Kabat numbering)
heavy: B1 heavy
chain: B1 chain
light: B1 light with P94T
notes: One-arm antibody; substitution position in Kabat numbering; also called L chain altered form, Kabat 89 G to T
B8: GLS3000 G91Y one-amino acid altered one-arm antibody (CE115HA000-pE22Hh / Kn010G3 / GLS3000 G91Y-kappa) (antibody, human IgG1, kappa, L234A L235A, N297A, name in Kabat numbering)
heavy: B1 heavy
chain: B1 chain
light: B1 light with P94G, G96Y
notes: One-arm antibody; substitution position in Kabat numbering; also called L chain altered form, Kabat 91 G to Y
B9: GLS3000 R77S one-amino acid altered one-arm antibody (CE115HA000-pE22Hh / Kn010G3 / GLS3000 R77S-kappa) (antibody, human IgG1, kappa, L234A L235A, N297A, name in Kabat numbering)
heavy: B1 heavy
chain: B1 chain
light: B1 light with R82S, P94G
notes: One-arm antibody; substitution position in Kabat numbering; also called L chain altered form, Kabat 77 R to S
B10: GLS3000 Q93R one-amino acid altered one-arm antibody (CE115HA000-pE22Hh / Kn010G3 / GLS3000 Q93R-kappa) (antibody, human IgG1, kappa, L234A L235A, N297A, name in Kabat numbering)
heavy: B1 heavy
chain: B1 chain
light: B1 light with P94G, Q98R
notes: One-arm antibody; substitution position in Kabat numbering; also called L chain altered form, Kabat 93 Q to R
B11: GLS3000 T92P one-amino acid altered one-arm antibody (CE115HA000-pE22Hh / Kn010G3 / GLS3000 T92P-kappa) (antibody, human IgG1, kappa, L234A L235A, N297A, name in Kabat numbering)
heavy: B1 heavy
chain: B1 chain
light: B1 light with P94G, T97P
notes: One-arm antibody; substitution position in Kabat numbering; also called L chain altered form, Kabat 92 T to P
B12: GLS3000 T92S one-amino acid altered one-arm antibody (CE115HA000-pE22Hh / Kn010G3 / GLS3000 T92S-kappa) (antibody, human IgG1, kappa, L234A L235A, N297A, name in Kabat numbering)
heavy: B1 heavy
chain: B1 chain
light: B1 light with P94G, T97S
notes: One-arm antibody; substitution position in Kabat numbering; also called L chain altered form, Kabat 92 T to S
B13: GLS3000 G89Y one-amino acid altered one-arm antibody (CE115HA000-pE22Hh / Kn010G3 / GLS3000 G89Y-kappa) (antibody, human IgG1, kappa, L234A L235A, N297A, name in Kabat numbering)
heavy: B1 heavy
chain: B1 chain
light: B1 light with P94Y
notes: One-arm antibody; substitution position in Kabat numbering; also called L chain altered form, Kabat 89 G to Y
B14: GLS3000 G91T one-amino acid altered one-arm antibody (CE115HA000-pE22Hh / Kn010G3 / GLS3000 G91T-kappa) (antibody, human IgG1, kappa, L234A L235A, N297A, name in Kabat numbering)
heavy: B1 heavy
chain: B1 chain
light: B1 light with P94G, G96T
notes: One-arm antibody; substitution position in Kabat numbering; also called L chain altered form, Kabat 91 G to T
B15: GLS3000 Q90Y one-amino acid altered one-arm antibody (CE115HA000-pE22Hh / Kn010G3 / GLS3000 Q90Y-kappa) (antibody, human IgG1, kappa, L234A L235A, N297A, name in Kabat numbering)
heavy: B1 heavy
chain: B1 chain
light: B1 light with P94G, Q95Y
notes: One-arm antibody; substitution position in Kabat numbering; also called L chain altered form, Kabat 90 Q to Y
B16: GLS3000 Q93S one-amino acid altered one-arm antibody (CE115HA000-pE22Hh / Kn010G3 / GLS3000 Q93S-kappa) (antibody, human IgG1, kappa, L234A L235A, N297A, name in Kabat numbering)
heavy: B1 heavy
chain: B1 chain
light: B1 light with P94G, Q98S
notes: One-arm antibody; substitution position in Kabat numbering; also called L chain altered form, Kabat 93 Q to S
B17: GLS3000 Q93Y one-amino acid altered one-arm antibody (CE115HA000-pE22Hh / Kn010G3 / GLS3000 Q93Y-kappa) (antibody, human IgG1, kappa, L234A L235A, N297A, name in Kabat numbering)
heavy: B1 heavy
chain: B1 chain
light: B1 light with P94G, Q98Y
notes: One-arm antibody; substitution position in Kabat numbering; also called L chain altered form, Kabat 93 Q to Y
B18: GLS3000 Q93P one-amino acid altered one-arm antibody (CE115HA000-pE22Hh / Kn010G3 / GLS3000 Q93P-kappa) (antibody, human IgG1, kappa, L234A L235A, N297A, name in Kabat numbering)
heavy: B1 heavy
chain: B1 chain
light: B1 light with P94G, Q98P
notes: One-arm antibody; substitution position in Kabat numbering; also called L chain altered form, Kabat 93 Q to P
B19: GLS3000 G89Q one-amino acid altered one-arm antibody (CE115HA000-pE22Hh / Kn010G3 / GLS3000 G89Q-kappa) (antibody, human IgG1, kappa, L234A L235A, N297A, name in Kabat numbering)
heavy: B1 heavy
chain: B1 chain
light: B1 light with P94Q
notes: One-arm antibody; substitution position in Kabat numbering; also called L chain altered form, Kabat 89 G to Q
B20: GLS3000 P95S one-amino acid altered one-arm antibody (CE115HA000-pE22Hh / Kn010G3 / GLS3000 P95S-kappa) (antibody, human IgG1, kappa, L234A L235A, N297A, name in Kabat numbering)
heavy: B1 heavy
chain: B1 chain
light: B1 light with P94G, P100S
notes: One-arm antibody; substitution position in Kabat numbering; also called L chain altered form, Kabat 95 P to S
B21: GLS3000 G91P one-amino acid altered one-arm antibody (CE115HA000-pE22Hh / Kn010G3 / GLS3000 G91P-kappa) (antibody, human IgG1, kappa, L234A L235A, N297A, name in Kabat numbering)
heavy: B1 heavy
chain: B1 chain
light: B1 light with P94G, G96P
notes: One-arm antibody; substitution position in Kabat numbering; also called L chain altered form, Kabat 91 G to P

The target of the test is T1, CD3 epsilon homodimer protein (UniProt P07766 23-126).
T1 construct: also called CD3 (CD3 epsilon)
T1 sequence (P07766 23-126): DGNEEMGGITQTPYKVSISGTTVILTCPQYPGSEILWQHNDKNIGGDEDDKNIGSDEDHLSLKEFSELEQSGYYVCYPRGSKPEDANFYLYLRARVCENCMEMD
Kind of test: SPR Biacore T200, CD3 epsilon homodimer immobilised on CM4, one-arm antibody as analyte, single-cycle kinetics; reference unaltered GLS3000 antibody.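 Further: CD3 epsilon homodimer attached to the CM4 chip via amine coupling, measured at 25 °C with HBS-EP+ as running buffer.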 Background: SPR reads the build-up and loss of mass on a sensor chip optically.
Method: An appropriate amount of CD3 epsilon homodimer protein was immobilized onto Sensor chip CM4 (GE Healthcare Japan Corp.) by the amine coupling method. Then, the antibody having an appropriate concentration was injected thereto as an analyte and allowed to interact with the CD3 epsilon homodimer protein on the sensor chip. Then, the sensor chip was regenerated by the injection of 10 mmol/L glycine-HCl (pH 1.5). The assay was conducted at 25 degrees C., and HBS-EP+(GE Healthcare Japan Corp.) was used as a running buffer. […] Each parameter was calculated using Biacore T200 Evaluation Software (GE Healthcare Japan Corp.).
Specifically, when the amount of the GLS3000-containing antibody bound was defined as X and the amount of the L chain one-amino acid altered form bound was defined as Y, a value of Z (ratio of amounts bound)=Y/X was used.
For the molecule B1, the “dissociation constant KD(M) ratio of L chain altered form to GLS3000” value (“dissociation constant KD(M) ratio” below) came to 1.8 ratio.

Regarding B2, the “dissociation constant KD(M) ratio” value stood at 0.85 ratio.

With B3, the “dissociation constant KD(M) ratio” value amounted to 15.9 ratio. Regarding B4, the “dissociation constant KD(M) ratio” value amounted to 2.2 ratio. The value for B5 was 1.4 ratio. The value for B6 was 0.96 ratio. As for B7, the “dissociation constant KD(M) ratio” value was 1.1 ratio. The value for B8 was 33.8 ratio; that for B9 was 0.94 ratio. With B10, the “dissociation constant KD(M) ratio” value amounted to 0.79 ratio.

For the molecule B11, the “dissociation constant KD(M) ratio” value was found to be 26.7 ratio.

Regarding B12, the “dissociation constant KD(M) ratio” value amounted to 0.81 ratio. For B13, the “dissociation constant KD(M) ratio” value is 1.12 ratio.

Regarding B14, the “dissociation constant KD(M) ratio” value was found to be 39.9 ratio. For B15, the “dissociation constant KD(M) ratio” value was found to be 36.3 ratio. In the case of B16, the “dissociation constant KD(M) ratio” value is 0.75 ratio.

For the molecule B17, the “dissociation constant KD(M) ratio” value is 0.76 ratio. With B18, the “dissociation constant KD(M) ratio” value was 39.5 ratio.

Consider B19, for which the “dissociation constant KD(M) ratio” value was determined as 2.11 ratio. The value for B20 was 1.19 ratio; that for B21 was 23.1 ratio.
